Data taken from patent publication US20190194280A1.

How the values were obtained:
[1] = biological target: Serum samples collected at week 16 from patients immunized with UBI AD vaccine (UB-311); experiment: comp. ELISA, serum P101
[2] = biological target: Serum samples collected at week 16 from patients immunized with UBI AD vaccine (UB-311); experiment: comp. ELISA, serum P102
[3] = biological target: Serum samples collected at week 16 from patients immunized with UBI AD vaccine (UB-311); experiment: comp. ELISA, serum P103
[4] = biological target: Serum samples collected at week 16 from patients immunized with UBI AD vaccine (UB-311); experiment: comp. ELISA, serum P104
[5] = biological target: Serum samples collected at week 16 from patients immunized with UBI AD vaccine (UB-311); experiment: comp. ELISA, serum P105
[6] = biological target: Serum samples collected at week 16 from patients immunized with UBI AD vaccine (UB-311); experiment: comp. ELISA, serum P106
[7] = biological target: Serum samples collected at week 16 from patients immunized with UBI AD vaccine (UB-311); experiment: comp. ELISA, serum P107
[8] = biological target: Serum samples collected at week 16 from patients immunized with UBI AD vaccine (UB-311); experiment: comp. ELISA, serum P108
[9] = biological target: Serum samples collected at week 16 from patients immunized with UBI AD vaccine (UB-311); experiment: comp. ELISA, serum P109
[10] = biological target: Serum samples collected at week 16 from patients immunized with UBI AD vaccine (UB-311); experiment: comp. ELISA, serum P201
[11] = biological target: Serum samples collected at week 16 from patients immunized with UBI AD vaccine (UB-311); experiment: comp. ELISA, serum P202
[12] = biological target: Serum samples collected at week 16 from patients immunized with UBI AD vaccine (UB-311); experiment: comp. ELISA, serum P203
[13] = biological target: Serum samples collected at week 16 from patients immunized with UBI AD vaccine (UB-311); experiment: comp. ELISA, serum P204
[14] = biological target: Serum samples collected at week 16 from patients immunized with UBI AD vaccine (UB-311); experiment: comp. ELISA, serum P205
[15] = biological target: Serum samples collected at week 16 from patients immunized with UBI AD vaccine (UB-311); experiment: comp. ELISA, serum P206
[16] = biological target: Serum samples collected at week 16 from patients immunized with UBI AD vaccine (UB-311); experiment: comp. ELISA, serum P207
[17] = biological target: Serum samples collected at week 16 from patients immunized with UBI AD vaccine (UB-311); experiment: comp. ELISA, serum P208
[18] = biological target: Serum samples collected at week 16 from patients immunized with UBI AD vaccine (UB-311); experiment: comp. ELISA, serum P209
[19] = biological target: Serum samples collected at week 16 from patients immunized with UBI AD vaccine (UB-311); experiment: comp. ELISA, serum P210
[20] = biological target: Immune sera of baboons immunized with UBI AD vaccine; experiment: competitive inhibition ELISA

B1: Aβ8-17 or APP 770 (S679-L688) (peptide)
peptide: SGYEVHHQKL
- IC50-based peak height [1]: 0
- IC50-based peak height [2]: 0
- IC50-based peak height [3]: 0
- IC50-based peak height [4]: 0
- IC50-based peak height [5]: 0
- IC50-based peak height [6]: 0
- IC50-based peak height [7]: 0
- IC50-based peak height [8]: 0
- IC50-based peak height [9]: 0
- IC50-based peak height [10]: 0
- IC50-based peak height [11]: 0
- IC50-based peak height [12]: 0
- IC50-based peak height [13]: 0
- IC50-based peak height [14]: 0
- IC50-based peak height [15]: 0
- IC50-based peak height [16]: 0
- IC50-based peak height [17]: 0
- IC50-based peak height [18]: 0
- IC50-based peak height [19]: 0

B2: Aβ17-42 (Aβ or APP 770 (L688-A713)) (peptide)
peptide: LVFFAEDVGSNKGAIIGLMVGGVVIA
- % inhibition at 0 µg/mL [20]: 0%
- % inhibition at 0.25 µg/mL [20]: 5%
- % inhibition at 0.5 µg/mL [20]: 9%
- % inhibition at 1 µg/mL [20]: 10%
- % inhibition at 2 µg/mL [20]: 5%
- % inhibition at 8 µg/mL [20]: 0%
- % inhibition at 32 µg/mL [20]: 7%

B3: Aβ-6-4 or APP 770 (I666-F675) (peptide)
peptide: ISEVKMDAEF
- IC50-based peak height [1]: 0
- IC50-based peak height [2]: 0
- IC50-based peak height [3]: 0
- IC50-based peak height [4]: 0
- IC50-based peak height [5]: 0
- IC50-based peak height [6]: 0
- IC50-based peak height [7]: 0
- IC50-based peak height [8]: 0
- IC50-based peak height [9]: 0
- IC50-based peak height [10]: 0
- IC50-based peak height [11]: 0
- IC50-based peak height [12]: 0
- IC50-based peak height [13]: 0
- IC50-based peak height [14]: 0
- IC50-based peak height [15]: 0
- IC50-based peak height [16]: 0
- IC50-based peak height [17]: 0
- IC50-based peak height [18]: 0
- IC50-based peak height [19]: 0

B4: Aβ7-16 or APP 770 (D678-K687) (peptide)
peptide: DSGYEVHHQK
- IC50-based peak height [1]: 214
- IC50-based peak height [2]: 0
- IC50-based peak height [3]: 0
- IC50-based peak height [4]: 0
- IC50-based peak height [5]: 0
- IC50-based peak height [6]: 0
- IC50-based peak height [7]: 0
- IC50-based peak height [8]: 0
- IC50-based peak height [9]: 0
- IC50-based peak height [10]: 0
- IC50-based peak height [11]: 0
- IC50-based peak height [12]: 0
- IC50-based peak height [13]: 0
- IC50-based peak height [14]: 0
- IC50-based peak height [15]: 0
- IC50-based peak height [16]: 0
- IC50-based peak height [17]: 0
- IC50-based peak height [18]: 0
- IC50-based peak height [19]: 0

B5: Aβ5-14 or APP 770 (R676-H685) (peptide)
peptide: RHDSGYEVHH
- IC50-based peak height [1]: 0
- IC50-based peak height [2]: 0
- IC50-based peak height [3]: 0
- IC50-based peak height [4]: 0
- IC50-based peak height [5]: 0
- IC50-based peak height [6]: 0
- IC50-based peak height [7]: 0
- IC50-based peak height [8]: 0
- IC50-based peak height [9]: 0
- IC50-based peak height [10]: 0
- IC50-based peak height [11]: 0
- IC50-based peak height [12]: 0
- IC50-based peak height [13]: 0
- IC50-based peak height [14]: 0
- IC50-based peak height [15]: 0
- IC50-based peak height [16]: 0
- IC50-based peak height [17]: 0
- IC50-based peak height [18]: 0
- IC50-based peak height [19]: 0

B6: Aβ-4-6 or APP 770 (E668-H677) (peptide)
peptide: EVKMDAEFRH
- IC50-based peak height [1]: 1
- IC50-based peak height [2]: 0
- IC50-based peak height [3]: 0
- IC50-based peak height [4]: 0
- IC50-based peak height [5]: 0
- IC50-based peak height [6]: 0
- IC50-based peak height [7]: 0
- IC50-based peak height [8]: 0
- IC50-based peak height [9]: 0
- IC50-based peak height [10]: 58
- IC50-based peak height [11]: 0
- IC50-based peak height [12]: 0
- IC50-based peak height [13]: 0
- IC50-based peak height [14]: 0
- IC50-based peak height [15]: 0
- IC50-based peak height [16]: 1
- IC50-based peak height [17]: 0
- IC50-based peak height [18]: 0
- IC50-based peak height [19]: 0

B7: Aβ-8-2 or APP 770 (E664-A673) (peptide)
peptide: EEISEVKMDA
- IC50-based peak height [1]: 0
- IC50-based peak height [2]: 0
- IC50-based peak height [3]: 0
- IC50-based peak height [4]: 0
- IC50-based peak height [5]: 0
- IC50-based peak height [6]: 0
- IC50-based peak height [7]: 0
- IC50-based peak height [8]: 0
- IC50-based peak height [9]: 0
- IC50-based peak height [10]: 0
- IC50-based peak height [11]: 0
- IC50-based peak height [12]: 0
- IC50-based peak height [13]: 0
- IC50-based peak height [14]: 0
- IC50-based peak height [15]: 0
- IC50-based peak height [16]: 0
- IC50-based peak height [17]: 0
- IC50-based peak height [18]: 0
- IC50-based peak height [19]: 0

B8: Aβ6-15 or APP 770 (H677-Q686) (peptide)
peptide: HDSGYEVHHQ
- IC50-based peak height [1]: 0
- IC50-based peak height [2]: 0
- IC50-based peak height [3]: 0
- IC50-based peak height [4]: 0
- IC50-based peak height [5]: 0
- IC50-based peak height [6]: 0
- IC50-based peak height [7]: 0
- IC50-based peak height [8]: 0
- IC50-based peak height [9]: 0
- IC50-based peak height [10]: 0
- IC50-based peak height [11]: 0
- IC50-based peak height [12]: 0
- IC50-based peak height [13]: 0
- IC50-based peak height [14]: 0
- IC50-based peak height [15]: 0
- IC50-based peak height [16]: 0
- IC50-based peak height [17]: 0
- IC50-based peak height [18]: 0
- IC50-based peak height [19]: 0

B9: Aβ-7-3 or APP 770 (E665-E674) (peptide)
peptide: EISEVKMDAE
- IC50-based peak height [1]: 0
- IC50-based peak height [2]: 0
- IC50-based peak height [3]: 0
- IC50-based peak height [4]: 0
- IC50-based peak height [5]: 0
- IC50-based peak height [6]: 0
- IC50-based peak height [7]: 0
- IC50-based peak height [8]: 0
- IC50-based peak height [9]: 0
- IC50-based peak height [10]: 0
- IC50-based peak height [11]: 0
- IC50-based peak height [12]: 0
- IC50-based peak height [13]: 0
- IC50-based peak height [14]: 0
- IC50-based peak height [15]: 0
- IC50-based peak height [16]: 0
- IC50-based peak height [17]: 0
- IC50-based peak height [18]: 0
- IC50-based peak height [19]: 0

B10: Aβ-5-5 or APP 770 (S667-R676) (peptide)
peptide: SEVKMDAEFR
- IC50-based peak height [1]: 10
- IC50-based peak height [2]: 0
- IC50-based peak height [3]: 0
- IC50-based peak height [4]: 0
- IC50-based peak height [5]: 0
- IC50-based peak height [6]: 0
- IC50-based peak height [7]: 0
- IC50-based peak height [8]: 0
- IC50-based peak height [9]: 0
- IC50-based peak height [10]: 0
- IC50-based peak height [11]: 0
- IC50-based peak height [12]: 0
- IC50-based peak height [13]: 0
- IC50-based peak height [14]: 0
- IC50-based peak height [15]: 0
- IC50-based peak height [16]: 0
- IC50-based peak height [17]: 0
- IC50-based peak height [18]: 0
- IC50-based peak height [19]: 0

B11: Aβ-9-1 or APP 770 (T663-D672) (peptide)
peptide: TEEISEVKMD
- IC50-based peak height [1]: 0
- IC50-based peak height [2]: 0
- IC50-based peak height [3]: 0
- IC50-based peak height [4]: 0
- IC50-based peak height [5]: 0
- IC50-based peak height [6]: 0
- IC50-based peak height [7]: 0
- IC50-based peak height [8]: 0
- IC50-based peak height [9]: 0
- IC50-based peak height [10]: 0
- IC50-based peak height [11]: 0
- IC50-based peak height [12]: 0
- IC50-based peak height [13]: 0
- IC50-based peak height [14]: 0
- IC50-based peak height [15]: 0
- IC50-based peak height [16]: 0
- IC50-based peak height [17]: 0
- IC50-based peak height [18]: 0
- IC50-based peak height [19]: 0

B12: Aβ-3-7 or APP 770 (V669-D678) (peptide)
peptide: VKMDAEFRHD
- IC50-based peak height [1]: 31
- IC50-based peak height [2]: 0
- IC50-based peak height [3]: 0
- IC50-based peak height [4]: 0
- IC50-based peak height [5]: 0
- IC50-based peak height [6]: 0
- IC50-based peak height [7]: 0
- IC50-based peak height [8]: 0
- IC50-based peak height [9]: 0
- IC50-based peak height [10]: 0
- IC50-based peak height [11]: 0
- IC50-based peak height [12]: 0
- IC50-based peak height [13]: 1
- IC50-based peak height [14]: 0
- IC50-based peak height [15]: 0
- IC50-based peak height [16]: 0
- IC50-based peak height [17]: 0
- IC50-based peak height [18]: 0
- IC50-based peak height [19]: 13
